# Measured values as given in article PMC10066265, “Inhibitor-3 inhibits Protein Phosphatase 1 via a metal binding dynamic protein–protein interaction” (Nature Communications, 2023).
# Where “and” joins values, the source holds several entries; their conditions need not be identical. Identical values can stand only once.
# B1: I3_(27-68) (I3 PP1 interaction domain) (domain or fragment, human, UniProt O60927 27-68, looked up)
# chain: SLTIKLRKRKPEKKVEWTSDTVDNEHMGRRSSKCCCIYEKPR
# notes: PPP1R11), human, residues 27-68; source: E. coli BL21 (DE3), purified (Ni-NTA, TEV cleavage, heat, SEC); not shown: His6, N-terminal, cleaved; MBP, N-terminal, cleaved
# What was measured:
# Conditions in all cases: both partners purified
# [1] = molecular target: T1, PP1α_(7-330) (UniProt P62136 7-330); test: SPR; as a1 but pH 6.5; His6-PP1 captured on Ni-NTA chip, I3_(27-68) injected; two state model
# T1 construct: Protein Phosphatase 1 alpha (PP1α), residues 7-330; His6-PP1 was captured on the Ni-NTA sensor chip as the SPR ligand; Mn2+ in all buffers; also called Protein Phosphatase 1; His6-PP1; source: E. coli, purified (Ni-NTA, SEC)
# T1 sequence (P62136 7-330): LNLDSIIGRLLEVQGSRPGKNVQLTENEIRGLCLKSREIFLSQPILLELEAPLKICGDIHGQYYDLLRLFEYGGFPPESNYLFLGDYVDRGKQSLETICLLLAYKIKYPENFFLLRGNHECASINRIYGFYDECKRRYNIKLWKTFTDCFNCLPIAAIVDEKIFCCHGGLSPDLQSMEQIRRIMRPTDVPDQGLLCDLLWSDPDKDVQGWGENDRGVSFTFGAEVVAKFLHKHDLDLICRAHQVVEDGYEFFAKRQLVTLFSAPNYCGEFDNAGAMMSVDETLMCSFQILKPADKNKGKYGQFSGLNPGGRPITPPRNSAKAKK
# [2] = molecular target: T1, PP1α_(7-330); test: SPR; as a1 but pH 7.0; His6-PP1 captured on Ni-NTA chip, I3_(27-68) injected; two state model
# [3] = molecular target: T1, PP1α_(7-330); test: SPR; as a1 but pH 7.5; His6-PP1 captured on Ni-NTA chip, I3_(27-68) injected; two state model
# [4] = molecular target: T1, PP1α_(7-330); test: SPR; His6-PP1 captured on Ni-NTA chip (NiHC200M), I3 variants injected; 25 °C; 20 mM Tris pH 8.0, 500 mM NaCl, 1 mM MnCl2, 0.5 mM TCEP, 0.05% Tween-20; one-to-one one state or one-to-one two state model (TraceDrawer)
# [5] = molecular target: T2, PP1α_(7-330) C273S (UniProt P62136 7-330, C273S); test: as above
# T2 construct: Protein Phosphatase 1 alpha (PP1α), residues 7-330, C273S; His6-tagged form captured on the Ni-NTA sensor chip; also called PP1 C273S; source: E. coli, purified (Ni-NTA, SEC)
# T2 sequence (P62136 7-330 C273S): as the sequence (P62136 7-330) above, with C267S counted along it
# [6] = molecular target: T3, PP1α_(7-330) H248N (UniProt P62136 7-330, H248N); test: as above
# T3 construct: Protein Phosphatase 1 alpha (PP1α), residues 7-330, H248N; His6-tagged form captured on the Ni-NTA sensor chip; also called PP1 H248N; source: E. coli, purified (Ni-NTA, SEC)
# T3 sequence (P62136 7-330 H248N): as the sequence (P62136 7-330) above, with H242N counted along it
# [7] = molecular target: T4, PP1α_(7-330) H66K (UniProt P62136 7-330, H66K); test: as above
# T4 construct: Protein Phosphatase 1 alpha (PP1α), residues 7-330, H66K (lacks the M1 metal); His6-tagged form captured on the Ni-NTA sensor chip; also called PP1 H66K; source: E. coli, purified (Ni-NTA, SEC)
# T4 sequence (P62136 7-330 H66K): as the sequence (P62136 7-330) above, with H60K counted along it
binder,measurement,setting,value
B1,Kd,[1],16.2 nM and 17.7 nM and 17.1 nM
same,Kd,[2],14.9 nM and 16.2 nM and 17.1 nM
same,Kd,[3],8.32 nM and 9.2 nM and 9.58 nM
same,Kd,[4],9.87 nM and 7.88 nM and 10.5 nM and 9.04 nM
same,Kd,[5],16.9 nM and 15.8 nM and 15.6 nM
same,Kd,[6],7.74 nM and 5.38 nM
same,Kd,[7],6.66 nM and 5.65 nM and 5.52 nM
